Measurements as given in US20080293626A1, “Pigment epithelium-derived factor as a therapeutic agent for vascular leakage” (The Johns Hopkins University, priority 2003, published 2008).

Biological target: PEDF receptor (unidentified cell surface receptor on bovine retinal capillary endothelial cells)
Experiment: cell-based or functional assay

inhibition of VEGF stimulated endothelial cell migration (BRCEC microchemotaxis chamber), IC50: 500 pM
Substance: Recombinant human pigment epithelium-derived factor (PEDF) (from UniProt P36955 20-418) (ligand)
